The text below walks through data of patent US20040001835A1, “Prevention or treatment of cancer using integrin alphavbeta3 antagonists in combination with other agents” (MedImmune, Inc., priority 2002, published 2004).

“Also recorded” adds a separate entry of the source. Where two headings read alike, the source gives them in different places.

For one assay, the system named is Rabbit αvβ3. In words: 125-labeled Vitaxin binding affinities and number of binding sites on cell lines. Particulars: for Kd: read-out: Kp. An excerpt:
(§1) ^125-labeled Vitaxin® was used to determine binding affinities and number of binding sites for human, rabbit and hamster cell lines. The affinity of Vitaxin® for hamster αvβ3 was approximately 2-3 fold lower than human αvβ3 while its affinity for rabbit αvβ3 was about 4-10 fold lower than human αvβ3.

The next assay relates to hamster αvβ3. The assay is described as above.
Excerpt: as §1

In assay [1] the target is T1, human β3 Mutant ABC (E171Q L173I E174K D179T T182S) (Homo sapiens, UniProt P05106, D205T/E197Q/E200K/L199I/T208S).
T1 construct: expressed in transfected cells; host or cells: HEK293
The assay can be described thus: FACS analysis of HEK293 transfectants, human β3 containing rat residues. Type of assay: binding. Particulars: flow cytometry. From the text:
(§2) FIG. 4. Binding of Integrin αvβ3 specific antibodies to human β3 containing rat residues.
(§3) Sequence comparison of residues 164 to 202 of β3 integrins from different species and design of mutations. To further characterize the binding epitope of Vitaxin®, the gene encoding β3 was cloned and sequenced from hamster cDNA. The amino acids in the region previously proposed to contain the LM609 binding epitope are shown above (dashed lines depict conserved residues). To determine which residues in the human sequence were essential for antibody binding, the amino acids shown in color were mutated to the corresponding rat residues. The resulting genes were transfected to HEK293 cells which express endogenous human αv. Resulting cell lines were analyzed by flow cytometry for antibody binding.
(§4) This protocol is used to assess the surface expression of integrins in HEK-293 cells transfected with various Integrin subunits. Primary antibodies bound to the integrins are detected by fluorochrome-conjugated secondary antibodies and analyzed by flow cytometry.
(§5) 1. Wash adherent cells twice with 5 ml of PBS.
(§6) 2. Add 1.5 ml of trypsin solution or cell dissociation solution, incubate at 37_C. foir 2 min.
(§7) 3. Add 3 ml of culture medium or FACs buffer to the plate and loosen cells from the plate by pipetting. Count cells. Resuspend cells in FACs buffer at 5×10^6 per ml.
(§8) 4. Transfer an aliquot of 5×10^5 cells (100 μl) into microfuge tubes containing 10 μg mouse IgG or human IgG. Incubate cells for 20 min at RT to block IgG receptor sites. Note: use mouse IgG for blocking when using human primary mAb; use human IgG for blocking when using mouse primary mAb.
(§9) 5. Add […] of Vitaxin®, or other primary mAb, and incubate for 20 min at RT.
(§10) 6. Wash twice with 500 μl of FACS buffer, spinning cells at 1500 rpm for 5 minutes.
(§11) 7. Add 0.5 mg of goat anti-human IgG Alexa 488, or other secondary antibodies, and incubate for 20 min at RT.
(§12) 8. Wash twice with 500 μl FACS buffer, spinning cells at 1500 rpm for 5 minutes.
(§13) 9. Resuspend in 500 μl buffer for FACS analysis.
(§14) 10. Use unstained cells for background. For negative control, use secondary antibody alone.
Background: In flow cytometry, cells or beads pass a laser one at a time.

Assay [2] has as its target T2, human β3 Mutant A + C (E171Q D179T T182S) (Homo sapiens, UniProt P05106, D205T/E197Q/T208S).
T2 construct: expressed in transfected cells; host or cells: HEK293
Described as above. Particulars: flow cytometry. It counts as binding.
Excerpt: as §2, §3, §4, §5, §6, §7, §8, §9, §10, §11, §12, §13, §14

Assay [3] addresses T3, human β3 Mutant B (L173I E174K) (Homo sapiens, UniProt P05106, E200K/L199I).
T3 construct: expressed in transfected cells; host or cells: HEK293
The description is as above. Type of assay: binding. Particulars: flow cytometry.
Excerpt: as §2, §3, §4, §5, §6, §7, §8, §9, §10, §11, §12, §13, §14

In assay [4] the target is T4, human β3 Mutant A (E171Q) (Homo sapiens, UniProt P05106, E197Q).
T4 construct: expressed in transfected cells; host or cells: HEK293
Described as above. Type of assay: binding. Particulars: flow cytometry.
Excerpt: as §2, §3, §4, §5, §6, §7, §8, §9, §10, §11, §12, §13, §14

T1 sequence (P05106 27-788 E197Q/L199I/E200K/D205T/T208S): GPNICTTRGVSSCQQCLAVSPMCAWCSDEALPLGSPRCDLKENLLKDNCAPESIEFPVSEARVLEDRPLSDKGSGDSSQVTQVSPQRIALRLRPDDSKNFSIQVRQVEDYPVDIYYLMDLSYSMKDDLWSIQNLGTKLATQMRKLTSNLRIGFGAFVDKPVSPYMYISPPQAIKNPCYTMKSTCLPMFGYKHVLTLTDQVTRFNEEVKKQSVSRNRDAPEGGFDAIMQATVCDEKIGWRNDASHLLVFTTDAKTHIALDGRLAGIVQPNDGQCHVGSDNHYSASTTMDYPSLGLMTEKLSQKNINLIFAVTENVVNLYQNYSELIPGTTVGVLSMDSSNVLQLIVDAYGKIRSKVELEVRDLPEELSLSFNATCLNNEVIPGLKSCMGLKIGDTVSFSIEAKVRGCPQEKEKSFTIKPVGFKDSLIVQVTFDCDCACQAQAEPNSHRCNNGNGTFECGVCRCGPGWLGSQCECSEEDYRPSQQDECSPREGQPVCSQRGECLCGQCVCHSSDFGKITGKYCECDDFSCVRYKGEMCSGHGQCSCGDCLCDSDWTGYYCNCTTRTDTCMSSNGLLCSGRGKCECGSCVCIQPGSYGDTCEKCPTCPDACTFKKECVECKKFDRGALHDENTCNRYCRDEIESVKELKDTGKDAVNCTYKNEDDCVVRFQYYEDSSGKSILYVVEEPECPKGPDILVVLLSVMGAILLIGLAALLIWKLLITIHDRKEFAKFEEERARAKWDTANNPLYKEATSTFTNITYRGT
T1 sequence (P06756 31-889 partner limits assumed): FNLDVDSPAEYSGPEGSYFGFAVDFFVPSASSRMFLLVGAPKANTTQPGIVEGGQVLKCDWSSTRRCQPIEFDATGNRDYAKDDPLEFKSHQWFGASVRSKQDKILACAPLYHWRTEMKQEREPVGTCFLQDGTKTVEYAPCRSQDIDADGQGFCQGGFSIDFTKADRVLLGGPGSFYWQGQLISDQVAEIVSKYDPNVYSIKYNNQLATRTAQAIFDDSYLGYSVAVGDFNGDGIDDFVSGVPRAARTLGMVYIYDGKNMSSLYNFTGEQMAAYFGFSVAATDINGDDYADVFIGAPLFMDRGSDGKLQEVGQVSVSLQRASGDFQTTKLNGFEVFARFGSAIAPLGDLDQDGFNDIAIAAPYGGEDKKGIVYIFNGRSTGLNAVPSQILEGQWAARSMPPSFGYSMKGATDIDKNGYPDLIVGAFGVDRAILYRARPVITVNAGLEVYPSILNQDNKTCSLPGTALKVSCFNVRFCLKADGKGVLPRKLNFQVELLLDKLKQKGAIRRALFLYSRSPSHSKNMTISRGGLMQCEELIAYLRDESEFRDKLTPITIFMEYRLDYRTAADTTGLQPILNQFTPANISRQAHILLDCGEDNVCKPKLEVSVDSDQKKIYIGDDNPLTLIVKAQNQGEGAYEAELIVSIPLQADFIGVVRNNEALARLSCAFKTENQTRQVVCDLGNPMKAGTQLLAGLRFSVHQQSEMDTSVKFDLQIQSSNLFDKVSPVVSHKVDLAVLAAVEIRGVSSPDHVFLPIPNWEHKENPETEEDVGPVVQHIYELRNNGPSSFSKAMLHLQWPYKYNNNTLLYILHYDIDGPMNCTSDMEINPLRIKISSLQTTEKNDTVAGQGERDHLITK
T1 sequence (P06756 891-1048 partner limits assumed): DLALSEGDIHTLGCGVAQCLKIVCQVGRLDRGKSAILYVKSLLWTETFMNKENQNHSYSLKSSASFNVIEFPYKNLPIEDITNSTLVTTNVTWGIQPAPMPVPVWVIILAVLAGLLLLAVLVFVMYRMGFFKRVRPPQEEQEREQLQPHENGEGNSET
T2 sequence (P05106 27-788 E197Q/D205T/T208S): as the sequence (P05106 27-788 E197Q/L199I/E200K/D205T/T208S) above, with I173L, K174E counted along it
T2 sequence (P06756 31-889 partner limits assumed): as the sequence (P06756 31-889 partner limits assumed) above
T2 sequence (P06756 891-1048 partner limits assumed): as the sequence (P06756 891-1048 partner limits assumed) above
T3 sequence (P05106 27-788 L199I/E200K): as the sequence (P05106 27-788 E197Q/L199I/E200K/D205T/T208S) above, with Q171E, T179D, S182T counted along it
T3 sequence (P06756 31-889 partner limits assumed): as the sequence (P06756 31-889 partner limits assumed) above
T3 sequence (P06756 891-1048 partner limits assumed): as the sequence (P06756 891-1048 partner limits assumed) above
T4 sequence (P05106 27-788 E197Q): as the sequence (P05106 27-788 E197Q/L199I/E200K/D205T/T208S) above, with I173L, K174E, T179D, S182T counted along it
T4 sequence (P06756 31-889 partner limits assumed): as the sequence (P06756 31-889 partner limits assumed) above
T4 sequence (P06756 891-1048 partner limits assumed): as the sequence (P06756 891-1048 partner limits assumed) above

B1: Vitaxin®: humanized blocking monoclonal antibody that binds Integrin αVβ3 (MEDI-522, MedImmune); humanized and optimized version of LM609 (antibody, chains of the INN, looked up, V domains shown)
VH: QVQLVESGGGVVQPGRSLRLSCAASGFTFSSYDMSWVRQAPGKGLEWVAKVSSGGGSTYYLDTVQGRFTISRDNSKNTLYLQMNSLRAEDTAVYYCARHLHGSFASWGQGTTVTVSS
VL: EIVLTQSPATLSLSPGERATLSCQASQSISNFLHWYQQRPGQAPRLLIRYRSQSISGIPARFSGSGSGTDFTLTISSLEPEDFAVYYCQQSGSWPLTFGGGTKVEIK
Consider B1, for which the Kd in the assay with Rabbit αvβ3 (Rabbit RK1 kidney epithelium) came to 23 nM; in the assay on Rabbit αvβ3 (Rabbit VX7 carcinoma), 8.9 nM; in the assay with hamster αvβ3 (Hamster CCL-49 melanoma, read-out: Kp), 6.9 nM. Further, in the assay with Rabbit αvβ3 (rabbit vs human cell lines), the “affinity for rabbit αvβ3, fold lower than human αvβ3” value is 4-10 fold. In the assay with hamster αvβ3 (hamster vs human cell lines), the “affinity for hamster αvβ3, fold lower than human αvβ3” value is 2-3 fold. In assay [1], the “effect of changing all three regions (A, B and C) to rat residues on antibody binding” value is listed as “disrupt binding; also recorded: completely eliminate binding”. Also, in assay [2], the “effect of Mutations A and C combined on antibody binding” value is reported as “disrupts binding; also recorded: eliminated binding”. In addition, the “effect of Mutation B (Leu, Glu to Ile, Lys at positions 173 and 174) on antibody binding” value in assay [3] was “disrupt binding”. The “effect of Mutation A (Glu to Gln at position 171) on antibody binding” value in assay [4] was “disrupts binding”.
